{
  "source": "patent US10702592B2",
  "about": "“Peptides and combination of peptides for use in immunotherapy against NHL and other cancers” (Immatics Biotechnologies GmbH, priority 2016, dated 2020)",
  "data": [
    {"biological_target": "HLA-A*02:01 (Homo sapiens, UniProt P04439, D140Y/D185E/D98H/E176V/E277Q/G131W/G231S/I119V/I121R/I166T/I218V/L300P/L318F/N151K/N90K/P208A/P217A/Q86G/Q94H/R138H/R169H/T345S)", "assay": "MHC binding assay (UV-ligand exchange, beta2m ELISA)", "conditions": "binding to HLA-A*02:01, UV-ligand exchange", "source_text": "Candidate peptides for T cell based therapies according to the present invention were further tested for their MHC binding capacity (affinity). The individual peptide-MHC complexes were produced by UV-ligand exchange, where a UV-sensitive peptide is cleaved upon UV-irradiation, and exchanged with the peptide of interest as analyzed. Only peptide candidates that can effectively bind and stabilize the peptide-receptive MHC molecules prevent dissociation of the MHC complexes. To determine the yield of the exchange reaction, an ELISA was performed based on the detection of the light chain (β2m) of stabilized MHC complexes. The assay was performed as generally described in Rodenko et al. (Rodenko et al., 2006).\n96 well MAXISorp plates (NUNC) were coated over night with 2 ug/ml streptavidin in PBS at room temperature, washed 4× and blocked for 1 h at 37° C. in 2% BSA containing blocking buffer. Refolded HLA-A*02:01/MLA-001 monomers served as standards, covering the range of 15-500 ng/ml. Peptide-MHC monomers of the UV-exchange reaction were diluted 100 fold in blocking buffer. Samples were incubated for 1 h at 37° C., washed four times, incubated with 2 ug/ml HRP conjugated anti-β2m for 1 h at 37° C., washed again and detected with TMB solution that is stopped with […]. Absorption was measured at 450 nm. Candidate peptides that show a high exchange yield (preferably higher than 50%, most preferred higher than 75%) are generally preferred for a generation and production of antibodies or fragments thereof, and/or T cell receptors or fragments thereof, as they show sufficient avidity to the MHC molecules and prevent dissociation of the MHC complexes.", "values": [
      {"substance": "137 (FIQQERFFL; listed as Homo sapiens) [compound 137]", "Peptide exchange (MHC class I binding score, peptide exchange yield)": "“+++” (≥50 = +++)"},
      {"substance": "138 (NLINNIFEL; listed as Homo sapiens) [compound 138]", "Peptide exchange (MHC class I binding score, peptide exchange yield)": "“++++” (≥75% = ++++)"},
      {"substance": "139 (FLASPLVAI; listed as Homo sapiens) [compound 139]", "Peptide exchange (MHC class I binding score, peptide exchange yield)": "“++++” (≥75% = ++++)"},
      {"substance": "140 (FLFEDFVEV; listed as Homo sapiens) [compound 140]", "Peptide exchange (MHC class I binding score, peptide exchange yield)": "“+++” (≥50 = +++)"},
      {"substance": "141 (FLGELTLQL; listed as Homo sapiens) [compound 141]", "Peptide exchange (MHC class I binding score, peptide exchange yield)": "“+++” (≥50 = +++)"},
      {"substance": "142 (FLYEDSKSVRL; listed as Homo sapiens) [compound 142]", "Peptide exchange (MHC class I binding score, peptide exchange yield)": "“+++” (≥50 = +++)"},
      {"substance": "143 (TLHAVDVTL; listed as Homo sapiens) [compound 143]", "Peptide exchange (MHC class I binding score, peptide exchange yield)": "“+++” (≥50 = +++)"},
      {"substance": "144 (GLITQVDKL; listed as Homo sapiens) [compound 144]", "Peptide exchange (MHC class I binding score, peptide exchange yield)": "“+++” (≥50 = +++)"},
      {"substance": "145 (GLLHEVVSL; listed as Homo sapiens) [compound 145]", "Peptide exchange (MHC class I binding score, peptide exchange yield)": "“+++” (≥50 = +++)"},
      {"substance": "146 (GLLQQPPAL; listed as Homo sapiens) [compound 146]", "Peptide exchange (MHC class I binding score, peptide exchange yield)": "“+++” (≥50 = +++)"},
      {"substance": "147 (GLSEYQRNFL; listed as Homo sapiens) [compound 147]", "Peptide exchange (MHC class I binding score, peptide exchange yield)": "“+++” (≥50 = +++)"},
      {"substance": "148 (ICAGHVPGV; listed as Homo sapiens) [compound 148]", "Peptide exchange (MHC class I binding score, peptide exchange yield)": "“+++” (≥50 = +++)"},
      {"substance": "149 (ILNPVTTKL; listed as Homo sapiens) [compound 149]", "Peptide exchange (MHC class I binding score, peptide exchange yield)": "“+++” (≥50 = +++)"},
      {"substance": "150 (ILSEKEYKL; listed as Homo sapiens) [compound 150]", "Peptide exchange (MHC class I binding score, peptide exchange yield)": "“+++” (≥50 = +++)"},
      {"substance": "151 (ILVKQSPML; listed as Homo sapiens) [compound 151]", "Peptide exchange (MHC class I binding score, peptide exchange yield)": "“+++” (≥50 = +++)"},
      {"substance": "152 (KIMYTLVSV; listed as Homo sapiens) [compound 152]", "Peptide exchange (MHC class I binding score, peptide exchange yield)": "“++” (≥20% = ++)"},
      {"substance": "153 (KLLKGIYAI; listed as Homo sapiens) [compound 153]", "Peptide exchange (MHC class I binding score, peptide exchange yield)": "“+++” (≥50 = +++)"},
      {"substance": "154 (KLMNIQQQL; listed as Homo sapiens) [compound 154]", "Peptide exchange (MHC class I binding score, peptide exchange yield)": "“+++” (≥50 = +++)"},
      {"substance": "155 (KLMTSLVKV; listed as Homo sapiens) [compound 155]", "Peptide exchange (MHC class I binding score, peptide exchange yield)": "“+++” (≥50 = +++)"},
      {"substance": "156 (KMLEDDLKL; listed as Homo sapiens) [compound 156]", "Peptide exchange (MHC class I binding score, peptide exchange yield)": "“+++” (≥50 = +++)"},
      {"substance": "157 (KVLEFLAKV; listed as Homo sapiens) [compound 157]", "Peptide exchange (MHC class I binding score, peptide exchange yield)": "“+++” (≥50 = +++)"},
      {"substance": "158 (KVQDVLHQV; listed as Homo sapiens) [compound 158]", "Peptide exchange (MHC class I binding score, peptide exchange yield)": "“+++” (≥50 = +++)"},
      {"substance": "159 (LLLSDSGFYL; listed as Homo sapiens) [compound 159]", "Peptide exchange (MHC class I binding score, peptide exchange yield)": "“+++” (≥50 = +++)"},
      {"substance": "160 (LLPPPSPAA; listed as Homo sapiens) [compound 160]", "Peptide exchange (MHC class I binding score, peptide exchange yield)": "“+++” (≥50 = +++)"},
      {"substance": "161 (NLMLELETV; listed as Homo sapiens) [compound 161]", "Peptide exchange (MHC class I binding score, peptide exchange yield)": "“+++” (≥50 = +++)"},
      {"substance": "162 (RLADLKVSI; listed as Homo sapiens) [compound 162]", "Peptide exchange (MHC class I binding score, peptide exchange yield)": "“++++” (≥75% = ++++)"},
      {"substance": "163 (SIFDAVLKGV; listed as Homo sapiens) [compound 163]", "Peptide exchange (MHC class I binding score, peptide exchange yield)": "“++++” (≥75% = ++++)"},
      {"substance": "164 (SLFDGAVISTV; listed as Homo sapiens) [compound 164]", "Peptide exchange (MHC class I binding score, peptide exchange yield)": "“+++” (≥50 = +++)"},
      {"substance": "165 (KLLEEIEFL; listed as Homo sapiens) [compound 165]", "Peptide exchange (MHC class I binding score, peptide exchange yield)": "“+++” (≥50 = +++)"},
      {"substance": "167 (SLFSITKSV; listed as Homo sapiens) [compound 167]", "Peptide exchange (MHC class I binding score, peptide exchange yield)": "“+++” (≥50 = +++)"},
      {"substance": "168 (SLLSPLLSV; listed as Homo sapiens) [compound 168]", "Peptide exchange (MHC class I binding score, peptide exchange yield)": "“+++” (≥50 = +++)"},
      {"substance": "169 (SSLEENLLHQV; listed as Homo sapiens) [compound 169]", "Peptide exchange (MHC class I binding score, peptide exchange yield)": "“+++” (≥50 = +++)"},
      {"substance": "171 (TLLDVISAL; listed as Homo sapiens) [compound 171]", "Peptide exchange (MHC class I binding score, peptide exchange yield)": "“++++” (≥75% = ++++)"},
      {"substance": "172 (TLQDSLEFI; listed as Homo sapiens) [compound 172]", "Peptide exchange (MHC class I binding score, peptide exchange yield)": "“++++” (≥75% = ++++)"},
      {"substance": "173 (VILDSVASV; listed as Homo sapiens) [compound 173]", "Peptide exchange (MHC class I binding score, peptide exchange yield)": "“++++” (≥75% = ++++)"},
      {"substance": "174 (VLVEITDVDFAA; listed as Homo sapiens) [compound 174]", "Peptide exchange (MHC class I binding score, peptide exchange yield)": "“++++” (≥75% = ++++)"},
      {"substance": "175 (VMESILLRL; listed as Homo sapiens) [compound 175]", "Peptide exchange (MHC class I binding score, peptide exchange yield)": "“+++” (≥50 = +++)"},
      {"substance": "176 (YLHIYESQL; listed as Homo sapiens) [compound 176]", "Peptide exchange (MHC class I binding score, peptide exchange yield)": "“+++” (≥50 = +++)"},
      {"substance": "177 (YLYEAEEATTL; listed as Homo sapiens) [compound 177]", "Peptide exchange (MHC class I binding score, peptide exchange yield)": "“+++” (≥50 = +++)"},
      {"substance": "178 (YVLQGEFFL; listed as Homo sapiens) [compound 178]", "Peptide exchange (MHC class I binding score, peptide exchange yield)": "“+++” (≥50 = +++)"},
      {"substance": "179 (FVDTNLYFL; listed as Homo sapiens) [compound 179]", "Peptide exchange (MHC class I binding score, peptide exchange yield)": "“+++” (≥50 = +++)"},
      {"substance": "180 (GILQLVESV; listed as Homo sapiens) [compound 180]", "Peptide exchange (MHC class I binding score, peptide exchange yield)": "“+++” (≥50 = +++)"},
      {"substance": "181 (LLFDQNDKV; listed as Homo sapiens) [compound 181]", "Peptide exchange (MHC class I binding score, peptide exchange yield)": "“+++” (≥50 = +++)"},
      {"substance": "182 (LLPPPPPVA; listed as Homo sapiens) [compound 182]", "Peptide exchange (MHC class I binding score, peptide exchange yield)": "“++++” (≥75% = ++++)"},
      {"substance": "183 (VLFETVLTI; listed as Homo sapiens) [compound 183]", "Peptide exchange (MHC class I binding score, peptide exchange yield)": "“+++” (≥50 = +++)"},
      {"substance": "184 (AVLGTSWQL; listed as Homo sapiens) [compound 184]", "Peptide exchange (MHC class I binding score, peptide exchange yield)": "“+++” (≥50 = +++)"},
      {"substance": "185 (FIAQLNNVEL; listed as Homo sapiens) [compound 185]", "Peptide exchange (MHC class I binding score, peptide exchange yield)": "“+” (≥10% = +)"},
      {"substance": "186 (FLDVSRDFV; listed as Homo sapiens) [compound 186]", "Peptide exchange (MHC class I binding score, peptide exchange yield)": "“+++” (≥50 = +++)"},
      {"substance": "187 (FLNSFVFKM; listed as Homo sapiens) [compound 187]", "Peptide exchange (MHC class I binding score, peptide exchange yield)": "“++” (≥20% = ++)"},
      {"substance": "188 (GLEDEMYEV; listed as Homo sapiens) [compound 188]", "Peptide exchange (MHC class I binding score, peptide exchange yield)": "“++” (≥20% = ++)"},
      {"substance": "189 (SLSHLVPAL; listed as Homo sapiens) [compound 189]", "Peptide exchange (MHC class I binding score, peptide exchange yield)": "“+++” (≥50 = +++)"},
      {"substance": "190 (GLIELVDQL; listed as Homo sapiens) [compound 190]", "Peptide exchange (MHC class I binding score, peptide exchange yield)": "“+++” (≥50 = +++)"},
      {"substance": "191 (GLSDISAQV; listed as Homo sapiens) [compound 191]", "Peptide exchange (MHC class I binding score, peptide exchange yield)": "“+++” (≥50 = +++)"},
      {"substance": "192 (GMAAEVPKV; listed as Homo sapiens) [compound 192]", "Peptide exchange (MHC class I binding score, peptide exchange yield)": "“++” (≥20% = ++)"},
      {"substance": "193 (SLADSMPSL; listed as Homo sapiens) [compound 193]", "Peptide exchange (MHC class I binding score, peptide exchange yield)": "“++” (≥20% = ++)"},
      {"substance": "194 (SLAPFDREPFTL; listed as Homo sapiens) [compound 194]", "Peptide exchange (MHC class I binding score, peptide exchange yield)": "“++” (≥20% = ++)"},
      {"substance": "195 (ALIPDLNQI; listed as Homo sapiens) [compound 195]", "Peptide exchange (MHC class I binding score, peptide exchange yield)": "“+++” (≥50 = +++)"},
      {"substance": "197 (YLLTDNVVKL; listed as Homo sapiens) [compound 197]", "Peptide exchange (MHC class I binding score, peptide exchange yield)": "“++” (≥20% = ++)"},
      {"substance": "198 (GLLSAVSSV; listed as Homo sapiens) [compound 198]", "Peptide exchange (MHC class I binding score, peptide exchange yield)": "“+++” (≥50 = +++)"},
      {"substance": "199 (SLNSTTWKV; listed as Homo sapiens) [compound 199]", "Peptide exchange (MHC class I binding score, peptide exchange yield)": "“+++” (≥50 = +++)"},
      {"substance": "200 (YLLDFEDRL; listed as Homo sapiens) [compound 200]", "Peptide exchange (MHC class I binding score, peptide exchange yield)": "“++++” (≥75% = ++++)"}
    ]}
  ]
}
